Laboratory results reported in paper PMC3386157, “G Protein Activation without a GEF in the Plant Kingdom” (PLoS Genetics, 2012).
Positions count from the first letter of the chain named.

Tests used:
Experiment in all cases: SPR; BIAcore 2000; His-tagged AtRGS1 (284-459 aa) immobilised on sensor chip CM5 by amine coupling; AlF4-bound Gα flowed at 6.25-400 nM in running buffer with 20 mM NaF and 100 µM AlCl3; 25°C, 10 µl/min; 10 mM Hepes, 150 mM NaCl, 3 mM EDTA, 0.005% Tween-20, 100 µM GDP, 10 mM MgCl2; 1:1 Langmuir model
Conditions in all cases: both partners purified
His-AtGPA1 = target: T1, His-AtGPA1 (Arabidopsis thaliana, UniProt P18064 1-383)
T1 construct: Arabidopsis thaliana heterotrimeric G protein alpha subunit AtGPA1; also called Arabidopsis thaliana Gα; wild type Arabidopsis Gα subunit; not shown: His6, N-terminal, kept
T1 sequence (looked up): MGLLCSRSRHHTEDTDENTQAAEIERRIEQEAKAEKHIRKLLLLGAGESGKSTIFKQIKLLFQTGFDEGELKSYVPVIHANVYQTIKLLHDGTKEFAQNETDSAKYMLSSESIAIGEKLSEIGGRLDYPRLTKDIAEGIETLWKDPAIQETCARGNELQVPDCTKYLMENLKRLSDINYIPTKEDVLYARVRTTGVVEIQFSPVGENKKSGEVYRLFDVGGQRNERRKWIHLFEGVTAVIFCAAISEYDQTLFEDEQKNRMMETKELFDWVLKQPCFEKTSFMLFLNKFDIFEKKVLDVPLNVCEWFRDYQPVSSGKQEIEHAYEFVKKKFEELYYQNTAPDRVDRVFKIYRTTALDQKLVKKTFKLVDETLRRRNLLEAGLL

OsRGA1-N195T = target: T2, OsRGA1-N195T (Oryza sativa, UniProt Q0DJ33 1-380, N195T)
T2 construct: Oryza sativa heterotrimeric G protein alpha subunit OsRGA1 with N195T (switch I); printed as N191T in two paragraphs; also called OsRGA1-N191T; 195T mutant rice Gα subunit
T2 sequence (looked up): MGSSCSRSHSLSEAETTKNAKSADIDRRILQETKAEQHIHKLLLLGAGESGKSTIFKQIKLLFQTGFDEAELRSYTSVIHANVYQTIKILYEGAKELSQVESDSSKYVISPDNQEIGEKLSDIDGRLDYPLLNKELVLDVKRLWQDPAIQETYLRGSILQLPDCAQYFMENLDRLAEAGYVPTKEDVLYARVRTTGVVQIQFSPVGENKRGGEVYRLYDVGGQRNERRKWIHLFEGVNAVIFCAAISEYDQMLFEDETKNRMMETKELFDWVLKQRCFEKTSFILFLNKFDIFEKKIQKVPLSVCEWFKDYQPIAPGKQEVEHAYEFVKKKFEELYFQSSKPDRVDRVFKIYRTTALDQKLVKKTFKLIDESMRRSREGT

OsRGA1 = target: T3, OsRGA1 (Oryza sativa, UniProt Q0DJ33 1-380)
T3 construct: Oryza sativa heterotrimeric G protein alpha subunit OsRGA1; cDNA synthesized with codon usage optimised for E. coli; No tag cleavage is described; also called rice Gα; wild type rice Gα subunit
T3 sequence (looked up): T2 sequence (looked up) with T195N

AtGPA1-T194N = target: T4, AtGPA1-T194N (Arabidopsis thaliana, UniProt P18064 1-383, T194N)
T4 construct: Arabidopsis thaliana heterotrimeric G protein alpha subunit AtGPA1 with T194N (switch I); No tag cleavage is described; also called T194N mutant Arabidopsis Gα subunit
T4 sequence (looked up): T1 sequence (looked up) with T194N

Kd (His-AtGPA1): 17.4 nM
koff (His-AtGPA1): 0.00616 s⁻¹
kon (His-AtGPA1): 353000 M⁻¹ s⁻¹
Kd (OsRGA1-N195T): 4.83 nM
koff (OsRGA1-N195T): 0.00584 s⁻¹
kon (OsRGA1-N195T): 1.21e+06 M⁻¹ s⁻¹
Kd (OsRGA1): 56.7 nM
koff (OsRGA1): 0.0217 s⁻¹
kon (OsRGA1): 383000 M⁻¹ s⁻¹
Kd (AtGPA1-T194N): 115 nM
koff (AtGPA1-T194N): 0.0134 s⁻¹
kon (AtGPA1-T194N): 117000 M⁻¹ s⁻¹
B1: Recombinant His-AtRGS1 (284–459 aa) (domain or fragment, Arabidopsis thaliana, UniProt Q8H1F2 284-459, looked up)
chain: KEEFRPVDPNEPLDKLLLNKRFRHSFMEFADSCYAGETLHFFEEVYEHGKIPEDDSIRRIYMARHIMEKFIVAGAEMELNLSHKTRQEILTTQDLTHTDLFKNALNEVMQLIKMNLVRDYWSSIYFIKFKEEESCHEAMHKEGYSFSSPRLSSVQGSDDPFYQEHMSKSSRCSSPG
notes: Arabidopsis thaliana Regulator of G protein Signaling 1 (AtRGS1), residues 284-459
